US10030065

Biological target: purified folded MHC-complex (Example 29)
Test: sandwich ELISA, W6/32 coat, HRP rabbit anti-β2m detection

## W6/32 mouse-anti-HLA-ABC antibody (Dako M0736)
  OD450 against the negative control β2m (fold): > 6 fold
